Results: publication PMC7028823, “EF1025, a Hypothetical Protein From Enterococcus faecalis, Interacts With DivIVA and Affects Cell Length and Cell Shape” (Frontiers in Microbiology, 2020)

Columns and labels:
[1] = target: DivIVAEf (bacterial two-hybrid fusion) (Enterococcus faecalis JH2-2) (UniProt Q93C53); test: two-hybrid; bacterial two-hybrid (Di Lallo) in E. coli R721, vectors pcI434-L and pcIp22-L, 0.1 mM IPTG; residual β-galactosidase activity, less than 50% indicates a positive interaction
[2] = target: the molecule itself; test: SEC-MALS; 1 mg purified 6×His-EF1025 on Superdex 200 in 50 mM Tris base, 400 mM NaCl, pH 7.4; also with 1 mM dithiothreitol

## EF1025-c (AA80-209 of EF1025), bacterial two-hybrid fusion (domain or fragment)
[1]
  residual β-galactosidase activity: 14%

B1: 6×His-EF1025 (natural protein, Enterococcus faecalis JH2-2, UniProt Q836T2 1-209, looked up)
chain: MKLSKRQEQIIAVVKEHQPVSGERISDILAVSRATLRSDLSFLTLSGILKASPKVGYTYESDNMEAFFFFDVFQTKVQEIMSPPLMVAQDTSIRDAITNLFMYDVGSLYVMDEAKELLGVLSRKDLLRASLNTNIDGTPVAVCMTRVPHVKTCTPEFTILEAADTLQKYEVDSLPVVEKENPKKVIGKITKTKILTYITQQAKEAAQNR
notes: hypothetical protein EF1025 of Enterococcus faecalis (209 AA), gene amplified with primers EF1025F-F/R and cloned into pET30a(+); Vector pET30a(+); also called pETEF1025; source: E. coli C41 (DE3), in lysate supernatant (pull-down); copies: 10
[2]
  stoichiometry N: 10
